Data set [1] deals with C2C12 cells. Briefly: Transient over-expression of candidate genes, cooperation with BMP2 by measurement of alkaline phosphatase. In kind it is cell-based, mouse. More on the design: key: +: positive or negative cooperation with BMP2; −: positive or negative cooperation with BMP2. The procedure: (§1) Mouse cell lines representing different stages of osteoblastic differentiation, C2C12, C2H10T1/2, ST2 and MC3T3-E1, were grown in the presence of agents capable of the induction of osteoblastic differentiation in vitro such as BMP2 and Sonic Hedgehog or in the presence of TGF beta (negative control) or with serum alone. Primary cells derived from mouse calvaria were also cultured for 0, 2, 7 14 and 21 days and RNA prepared for each time point. For example, C3H10T ½ and C2C12 can be obtained from the ATCC (Manassas, Va., USA) under the collection numbers CCL-226 and CRL-1772, respectively.
(§2) The candidates genes are cloned in expression vectors and their ability to express a protein of the expected size verified by COS cells transient transfection. The genes are then transfected in C3H10T1/2 cells and/or C2C12 cells (transient over-expression) and positive or negative cooperation with BMP2 is evaluated by the measurement of alkaline phosphatase (enzymatic assay and TaqMan) at 48 hours. Controls of positive cooperation, recombinant Sonic Hedgehog, or negative cooperation, recombinant Noggin, are included in each test.

For data set [2], the system named is C3H10T1/2 cells. The data set is described as above. In kind it is cell-based, mouse. Details: key: +: positive or negative cooperation with BMP2; −: positive or negative cooperation with BMP2. To be noted: alkaline phosphatase. On the procedure: as §1, §2

B1: 68 (nucleic acid, listed as Mus musculus)
chain: CGATCGATATGGTCACCCACAGCAAGTTTCCCGCCGCCGGGATGAGCCGCCCCCTGGACACCAGCCTGCGCCTCAAGACCTTCAGCTCCAAAAGCGAGTACCAGCTGGTGGTGAACGCCGTGCGCAAGCTGCAGGAGAGCGGATTCTACTGGAGCGCCGTGACCGGCGGCGAGGCGAACCTGCTGCTCAGCGCCGAGCCCGCGGGCACCTTTCTTATCCGCGACAGCTCGGACCAGCGCCACTTCTTCACGTTGAGCGTCAAGACCCAGTCGGGGACCAAGAACCTACGCATCCAGTGTGAGGGGGGCAGCTTTTCGCTGCAGAGTGACCCCCGAAGCACGCAGCCAGTTCCCCGCTTCGACTGTGTACTCAAGCTGGTGCACCACTACATGCCGCCTCCAGGGACCCCCTCCTTTTCTTTGCCACCCACGGAACCCTCGTCCGAAGTTCCGGAGCAGCCACCTGCCCAGGCACTCCCCGGGAGTACCCCCAAGAGAGCTTACTACATCTATTCTGGGGGCGAGAAGATTCCGCTGGTACTGAGCCGACCTCTCTCCTCCAACGTGGCCACCCTCCAGCATCTTTGTCGGAAGACTGTCAACGGCCACCTGGACTCCTATGAGAAAGTGACCCAGCTGCCTGGACCCATTCGGGAGTTCCTGGATCAGTATGATGCTCCACTTGCGGCCGCTT
For B1, the “Validation in vitro (coop over BMP2) C2C12” value in data set [1] was “−”. The “Validation in vitro (coop over BMP2) C3H10T1/2” value in data set [2] is reported as “−”.

B2: 63 (nucleic acid, listed as Mus musculus)
chain: CGGAATTCGCCATGTCAACAGCAGGAGTTGCTGCTCAGGATATTCGAGTCCCATTAAAAACTGGATTTCTCCATAATGGTCAGGCCTTGGGGAATATGAAGTCCTGCTGGGGCAGTCACAGTGAGTTTGAAAATAACTTTTTAAATATTGATCCAATAACCATGGCCTACAATCTGAACTCCCCTGCTCAGGAGCACCTAACAACTGTTGGATGTGCTGCTCGGTCTGCTCCAGGGAGCGGCCACTTCTTTGCAGAGTGTGGTCCATCTCCAAGGTCAAGCTTGCCCCCTCTTGTTATCTCACCAAGTGAAAGCTCGGGACAGCGTGAAGAGGATCAAGTTATGTGTGGTTTTAAGAAACTCTCAGTGAATGGGGTCTGCACTTCCACACCTCCACTTACACCCATTAAAAGCTGCCCTTCCCCTTTCCCCTGTGCGGCTCTGTGTGATCGGGGTTCTCGGCCGCTCCCGCCACTGCCCATCTCTGAAGACCTATGTGTGGATGAGGCCGACAGTGAGGTAGAGCTTCTAACCACCAGCTCAGACACAGACTTGCTTTTAGAAGACTCTGCGCCTTCAGATTTCAAATACGATGCTCCTGGCAGGCGCAGCTTCCGTGGGTGCGGCCAGATCAACTATGCATATTTTGACAGCCCAACTGTTTCTGTGGCAGATCTTAGCTGTGCATCTGACCAGAACAGAGTTGTTCCAGACCCAAACCCTCCCCCACCTCAAAGCCATCGCAGATTAAGGAGGTCTCACTCAGGACCAGCTGGGTCATTTAACAAGCCAGCCATTCGGATATCTAGCTGCACACACAGAGCTTCTCCTAGCTCTGATGAAGACAAGCCTGAGGTCCCTCCCAGGGTTCCTATACCTCCTAGGCCAGCAAAGCCAGACTATAGACGGTGGTCAGCAGAAGTGACCTCCAACACCTACAGTGATGAAGATAGGCCTCCCAAAGTCCCCCCGAGAGAACCTTTGTCTCGGAGTAACTCCCGTACCCCAAGTCCTAAAAGCCTTCCGTCTTACCTCAATGGGGTCATGCCCCCAACACAGAGCTTCGCTCCTGACCCCAAGTATGTCAGCAGCAAAGCCCTGCAGAGACAGAGCAGCGAAGGATCTGCCAACAAGGTTCCTTGCATCCTGCCCATTATTGAAAATGGGAAGAAGGTTAGCTCAACGCATTATTACTTACTACCTGAGAGGCCACCGTACCTGGACAAATATGAAAAGTATTTTAAGGAAGCAGAAGAAACAAACCCAAGCACCCAAATTCAGCCATTACCTGCTGCCTGTGGTATGGCCTCTGCCACAGAAAAGCTGGCCTCCAGAATGAAAATAGATATGGGTAGCCACGGGAAGCGCAAACACTTATCCTACGTGGTTTCTCCAGCGGCCGCTT
Turning to B2, in data set [1], the “Validation in vitro (coop over BMP2) C2C12” value is listed as “−”. Moreover, the “Validation in vitro (coop over BMP2) C3H10T1/2” value in data set [2] is listed as “−”.
